According to patent US7556938B1, “Nucleic acids encoding potassium channel interactors” (Millennium Pharmaceuticals, Inc., priority 1998, dated 2009):

What was measured:
[1] = biological target: T1, rKv4.2 (Rattus norvegicus, UniProt Q63881); assay: Patch-clamp of Kv4.2 currents in CHO cells coexpressing KChIPs; format: cell-based
T1 construct: expressed in transfected cells; host or cells: CHO cells, transient transfection with GFP co-transfected
T1 sequence (Q63881 1-630): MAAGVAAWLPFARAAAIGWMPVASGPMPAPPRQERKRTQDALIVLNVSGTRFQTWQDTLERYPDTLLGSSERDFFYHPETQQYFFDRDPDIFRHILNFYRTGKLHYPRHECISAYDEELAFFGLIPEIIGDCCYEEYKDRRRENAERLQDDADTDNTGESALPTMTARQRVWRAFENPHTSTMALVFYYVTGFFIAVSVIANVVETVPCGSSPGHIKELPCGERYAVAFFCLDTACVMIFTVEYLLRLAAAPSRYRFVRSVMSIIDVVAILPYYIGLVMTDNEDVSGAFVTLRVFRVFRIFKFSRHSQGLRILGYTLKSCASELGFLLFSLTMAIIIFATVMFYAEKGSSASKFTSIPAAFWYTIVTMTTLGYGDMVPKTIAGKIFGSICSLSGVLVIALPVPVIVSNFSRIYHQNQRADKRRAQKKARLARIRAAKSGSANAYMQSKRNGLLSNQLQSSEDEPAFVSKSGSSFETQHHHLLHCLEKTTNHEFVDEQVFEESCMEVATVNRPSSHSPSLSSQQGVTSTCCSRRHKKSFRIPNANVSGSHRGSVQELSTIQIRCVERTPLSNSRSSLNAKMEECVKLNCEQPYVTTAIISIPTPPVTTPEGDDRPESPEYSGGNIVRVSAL
Method: HEK 293 and CHO cells were used for recordings 1-3 days after a transient transfection. Whole-cell currents were recorded from cells expressing GFP, identified by their green fluorescence. […] After Gigaseal and ruptured whole-cell configuration access, resistance was less than 10 MOhms. Whole-cell bath solutions were made from a 10× Hank's balanced salt solution (GibcoBRL) with the following final concentration (in mM): 138 NaCl, 5.4 KCl, 1.3 MgCl2, 1.3 CaCl2, 5.5 D-Glukos and 10 HEPES, pH 7.4. The intracellular electrode solution consisted of (in mM) 140 KCl, 10 HEPES, 10 EGTA, 0.5 MgCl2, pH 7.3. All chemicals were from Sigma (St. Louis, Mo.) or Fisher Scientific (Houston, Tex.). Membrane currents were recorded using a EPC9 patch-clamp amplifier (HEKA, Germany). Data were analyzed using Matlab (Natick, Ma), and leak subtracted if necessary. All experiments were done at room temperature.
Because PCIPs, e.g., KChIP1 (1v), KChIP2 (9ql), and KChIP3 (p19), colocalize and coassociate with Kv4 α-subunits in brain, another critical question was to determine whether these PCIPs alter the conductance properties of Kv4 channels. To address this issue, Kv4.2 and Kv4.3 were expressed alone and in combination with individual PCIPs. CHO cells were transiently-transfected with cDNA using the DOTAP lipofection method as described by the manufacturer (Boehringer Mannheim, Inc.). Transfected cells were identified by cotransfecting enhanced GFP along with the genes of interest and subsequently determining if the cells contained green GFP fluorescence. Currents in CHO cells were measured using the patch-clamp technique (Hamill et al. 1981. Pfluegers Arch. 391: 85-100).
First, the amplitude of the Kv4.2 current increased approximately 7.5 fold in the presence of KChIP1 (amplitude of Kv4.2 alone=0.60+/−0.096 nA/cell; Kv4.2+KChIP1=4.5+/−0.55 nA/cell). […] Finally, the kinetics of Kv4.2 inactivation slowed considerably when Kv4.2 was coexpressed with KChIP1 (inactivation time constant of Kv4.2 alone=28.2+/−2.6 ms; Kv4.2+KChIP1=104.1+/−10.4 ms), while channels recovered from inactivation much more rapidly in cells expressing both Kv4.2 and KChIP1 (recovery tau=53.6+/−7.6 ms) versus cells expressing Kv4.2 alone (recovery tau=272.2+/−26.1 ms).

[2] = system: rKv4.3; assay: Two-electrode voltage clamp of Kv4.3 currents in Xenopus oocytes co-injected with KChIP cRNA; format: cell-based, rat
Chain of rKv4.3 (Q62897 1-487 limits assumed): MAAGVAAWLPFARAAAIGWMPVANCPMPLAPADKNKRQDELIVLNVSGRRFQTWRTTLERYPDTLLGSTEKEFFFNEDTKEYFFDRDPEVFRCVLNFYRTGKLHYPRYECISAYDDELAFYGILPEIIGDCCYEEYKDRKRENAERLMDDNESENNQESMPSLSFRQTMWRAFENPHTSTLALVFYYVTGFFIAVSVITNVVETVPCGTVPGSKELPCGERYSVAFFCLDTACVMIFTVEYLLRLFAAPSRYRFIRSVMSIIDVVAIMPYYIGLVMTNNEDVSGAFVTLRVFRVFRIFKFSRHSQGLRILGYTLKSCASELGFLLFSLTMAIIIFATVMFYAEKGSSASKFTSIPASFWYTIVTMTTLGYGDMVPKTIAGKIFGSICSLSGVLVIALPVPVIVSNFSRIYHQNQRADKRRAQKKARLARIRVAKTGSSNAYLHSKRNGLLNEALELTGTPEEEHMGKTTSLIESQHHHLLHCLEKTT
Method: (§1) Frogs underwent no more than two surgeries and surgeries were performed by well established techniques. Frogs were anesthetized with ice. Total cRNA (1-10 ng) was injected into stage IV Xenopus oocytes that were harvested the previous day. The Xenopus oocytes were incubated in ND96 containing (in mM) 96 NaCl, 2 KCl, 1.8 CaCl2, 1 MgCl2, 5 HEPES, pH 7.6, plus (Gentamycin 50 μg/ml) at 18° C. Xenopus oocytes were studied 3-7 days after injection. The two-electrode voltage-clamp recordings were performed in ND96 solution using a TURBO TEC 03 Clamp Amplifier (ALA Scientific Instruments, Westbury, N.Y.). Both electrodes were filled with 3 M KCl and had electrode resistances ranging from 0.2-1 MOhm. The current signals were filtered at 1000 Hz before transferred on a PC (Gateway, Calif.) using the PULSE software (HEKA, Germany).
(§2) To investigate whether the modulatory effects of these KChIPs are specific for Kv4 channels, KChIP1 was coexpressed with Kv1.4 and Kv2.1 in Xenopus oocytes. Xenopus oocytes were injected with 1-3 ng/oocyte of cRNA which was prepared using standard in vitro transcription techniques (Sambrook et al. 1989. Molecular Cloning: a laboratory manual, Cold Spring Harbor Press). Currents in Xenopus oocytes were measured with a two-electrode voltage clamp. […] As a final control for the KChIP effects and to verify that the KChIPs' effects on Kv4 currents are independent of expression system, the above kinetic analyses were repeated after expressing Kv4.3 and KChIP mRNAs in Xenopus oocytes. The effects KChIP1 on for Kv4.3 in the Xenopus oocyte system were strikingly similar to those on Kv4.2 in CHO cells (Table 1).

[3] = biological target: hKv1.4 (Homo sapiens, UniProt P22459); assay: Two-electrode voltage clamp of Kv1.4 currents in Xenopus oocytes coexpressing 1v; format: cell-based
Chain of hKv1.4 (P22459 whole entry): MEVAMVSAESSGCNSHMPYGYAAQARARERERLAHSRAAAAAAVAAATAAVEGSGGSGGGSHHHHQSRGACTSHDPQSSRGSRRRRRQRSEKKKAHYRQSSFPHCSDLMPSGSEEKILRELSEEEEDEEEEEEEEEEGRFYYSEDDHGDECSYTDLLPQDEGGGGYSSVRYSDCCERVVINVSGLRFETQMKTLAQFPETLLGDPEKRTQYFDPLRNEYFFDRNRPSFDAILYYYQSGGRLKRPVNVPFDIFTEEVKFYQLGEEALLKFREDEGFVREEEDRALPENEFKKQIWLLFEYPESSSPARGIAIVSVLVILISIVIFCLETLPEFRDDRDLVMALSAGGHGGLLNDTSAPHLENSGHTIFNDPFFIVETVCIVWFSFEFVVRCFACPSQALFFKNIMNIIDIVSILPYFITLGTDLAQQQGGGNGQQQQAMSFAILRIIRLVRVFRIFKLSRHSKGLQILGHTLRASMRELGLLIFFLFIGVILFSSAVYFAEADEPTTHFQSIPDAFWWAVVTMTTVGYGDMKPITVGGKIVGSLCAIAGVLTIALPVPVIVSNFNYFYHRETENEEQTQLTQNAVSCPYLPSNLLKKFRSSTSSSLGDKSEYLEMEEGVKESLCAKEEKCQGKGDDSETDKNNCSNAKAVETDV
Method: as §1, §2

[4] = rKv4.2 coexpressed with the KChIP, at 50 mV
[5] = Kv4.3 co-expressed with the KChIP

B1: KChIP1: Potassium channel interacting protein 1v, a Ca2+-binding protein that binds and modulates Kv4 channels (protein)
chain: MPARVLLAYPGTEMLTQGESEGLQTLGIVVVLCSSLKLLHYLGLIDLSDDKIEDDLEMTMVCHRPEGLEQLEAQTNFTKRELQVLYRGFKNECPSGVVNEETFKQIYAQFFPHGDASTYAHYLFNAFDTTQTGSVKFEDFVTALSILLRGTVHEKLRWTFNLYDINKDGYINKEEMMDIVKAIYDMMGKYTYPVLKEDTPRQHVDVFFQKMDKNKDGIVTLDEFLESCQEDDNIMRSLQLFQNVM
B1 was tested, and the “activation V1/2” value ([1]; Kv4.2 coexpressed with KChIP1) was −12.1+/−1.4 mV, the “Inactivation time constant (ms, at 50 mV)” value [1, 4] was 104.1 ± 10.4 ms and the “Peak Current (nA/cell at 50 MV)” value [1, 4] was 4.5+/−0.55 nA/cell. For the same molecule, the “Peak Current Density (pA/pF at 50 mV)” value [1, 4] was 306.9+/−57.9 pA/pF, the “fold increase of Kv4.2 current amplitude” value ([1]; versus Kv4.2 alone) was “approximately 7.5 fold” and the “fold increase of Kv4.2 current density” value ([1]; versus Kv4.2 alone) was 12 fold. The “Inactivation time constant (ms ± SEM)” value [2, 5] was 112 ± 3 ms, the “Peak amplitude (μA ± SEM)” value [2, 5] was 59 ± 5 μA and the “Inactivation time constant (ms, at 50 mV)” value ([2]; rKv4.3 + KChIP1, at 50 mV) was 135.0 ± 15.1 ms. The “Peak Current” value ([2]; rKv4.3 + KChIP1, at 50 mV, unit μA printed in cell) was 18.1 μA* ± 3.8, the “fold increase of inactivation time constant of Kv4.3” value ([2]; versus Kv4.3 alone) was about 2 fold and the “effect on Kv1.4 currents” value [3] was “did not appear to have any effect”. For the same molecule, the “Activation V1/2 (mV)” value ([3]; hKv1.4 + 1v) was −20.9 mV, the “Steady-state Inactivation V1/2 (mV)” value ([3]; hKv1.4 + 1v) was −47.5 mV and the “Inactivation time constant (ms, at 50 mV)” value ([3]; hKv1.4 + 1v, at 50 mV) was 58.2 ± 6.6 ms. The “Peak Current (μA/cell at 50 MV)” value ([3]; hKv1.4 + 1v, at 50 mV) was 6.5 ± 0.64 μA/cell.
